Data: the supplement of paper PMC12455559

What was measured:
[1] = melting temperature (DSF); higher = more thermostable
Protocol: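 Candidate PET hydrolases were expressed in E. coli C41(DE3) in 2 mL autoinduction cultures in 24-deep-well plates, Ni-bead purified and released by SUMO protease cleavage on an OT-2 robot. Yield per well was measured by BCA; values below 25 ug (0.1 mg/mL) are below the detection threshold. Melting temperature was measured by differential scanning fluorimetry with Sypro Orange, ramping from 25 C at 0.3 C/step.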

[2] = purified protein yield per well (BCA); higher = higher soluble expression
Summary of the method: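 Candidate enzymes were produced in E. coli C41(DE3) grown in 2 mL autoinduction cultures containing 100 µg/mL kanamycin, first at 37 °C for 2 h and then at 18 °C for 40 h. After cell lysis, protein was captured on Ni-charged magnetic beads and freed by SUMO protease cleavage on an OT-2 robot. Purified protein yield per well was read with the Pierce Rapid Gold BCA kit. Values under 25 ug (0.1 mg/mL) fall below the detection threshold.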

[3] = PET hydrolysis, aromatic products released after 48 h (umol product/mg enzyme); higher = more PET depolymerization activity
Protocol: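 HTP-purified, SUMO-cleaved, tagless PET hydrolase candidates (5 ug, 1.43 mg/g PET) were incubated 48 h without shaking with 3.5 mg amorphous PET film (aFilm) or crystalline PET powder (cryPow) in 0.5 mL buffer: NaCitrate pH 4.5/5.5, NaPhosphate pH 6.5/7.5, glycine pH 8.5. Incubation was at 40 or 60 C. Aromatic products (TPA, MHET, BHET) in the supernatant were quantified by UV absorbance at 260/280 nm relative to buffer blanks and expressed per mg enzyme. LCC-ICCG was the positive control on every plate.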

[4] = substrate: cryPow, 40 °C, pH 4.5
[5] = substrate: cryPow, 40 °C, pH 5.5
[6] = substrate: cryPow, 40 °C, pH 6.5
[7] = substrate: cryPow, 40 °C, pH 7.5
[8] = substrate: cryPow, 60 °C, pH 4.5
[9] = substrate: cryPow, 60 °C, pH 5.5
[10] = substrate: cryPow, 60 °C, pH 6.5
[11] = substrate: cryPow, 60 °C, pH 7.5

In the case of “GSLAHIVMVDAYKPTKGSGASQTNPYARGPNPTAASLEASAGPFTVRSFTVSRPSGYGAGTVYYPTNAGGTVGAIAIVPGYTARQSSIKWWGPRLASHGFVVITIDTNSTFDYPSSRSSQQMAALRQVASLNGDSSSPIYGKVDTARMGVMGHSMGGGASLRSAANNPSLKAAIPQAPWDSQTNFSSVTVPTLIFACENDSIAPVNSHALPIYDSMSRNAKQFLEINGGSHSCANSGNSNQALIGKKGVAWMKRFMDNDTRYSTFACENPNSTAVSDFRTANCSLEGSGGSGAHIVMVDAYKPTK [TEP004]”, the melting temperature [1] is reported as 73.9 C, the “purified protein yield per well” value [2] is reported as 77.2 µg and the PET hydrolysis [3, 4] is reported as 4. For the same sequence, the PET hydrolysis [3, 5] was 33, the PET hydrolysis [3, 6] was 62 and the PET hydrolysis [3, 7] was 69. It also gave a PET hydrolysis [3, 8] of under 3, a PET hydrolysis [3, 9] of 14 and a PET hydrolysis [3, 10] of 76. For the same sequence, the PET hydrolysis [3, 11] was 82.

In the case of “ADNPYQRGPDPTRTSVTAVNGPFANTSVSVPTGYGFNGGRIYYPTDTSQGTFGAIAISPGYTALFSAELAWMGPWLASHGFVVIGIETNSRNDFDTARGTQLLAALDYLTQQSPVRDRVDPTRLAVAGHSMGGGGALSAATRRSSLKAAVGIAPYSPSSNLANDRVPTMVFAGQADTVVTPSYATGLYNSLPATTESAYLEVAGADHGFMVGRSNPVLVRTMLPFVKMFVDNDARYSQFLCPLLDSSGVVTYRSTCPLLPSTPTTPTATPTNTPTPTASPTVPPTSASQIVGTQSGRCVDVPNASRTNGTRVTLYDCNRQINQTWTYTANKQLQVYGTMCLDAAGTGNGAAVQIYNCHGQTNQQWNVNSNGTISSVQSGRCLDVWSTSNGAQIQLYDCHGQPNQQFRLVSLA [ESM135]”, the melting temperature [1] is reported as 61.3 C, the “purified protein yield per well” value [2] is reported as 109 µg and the PET hydrolysis [3, 4] is reported as 6. For the same sequence, the PET hydrolysis [3, 5] was 15, the PET hydrolysis [3, 6] was 14 and the PET hydrolysis [3, 7] was 5. It also gave a PET hydrolysis [3, 8] of under 3, a PET hydrolysis [3, 9] of under 3 and a PET hydrolysis [3, 10] of under 3. For the same sequence, the PET hydrolysis [3, 11] was under 3.

With “ADNPYQRGPDPTRTSVTAENGPFANTSVSVPTGYGFNGGRIYYPTDTSQGTFGAIAISPGYTALFSAELAWMGPWLASHGFVVIGIETNSRNDFDTARGTQLLAALDYLTQQSPIRDRVDPNRLAVAGHSMGGGGALSAASRRSSLRAVVGIAPYSPSSNLANDRVPTMIFSGQADTVVTPSYATGLYNSLPATTKSVYLEVAGADHGFMVGRSNPVMIRTMLPFVKMFIDNDARYSQFLCPLLDSSGVVTYRSTCPLLPSTPTTPTPTPTDPPTVPPGSANEIVGTQSGRCVDVPNASRNNGTRVQLYDCNKQTNQAWTYTATKQLQVYGNMCLDAAGSGNGAAVQIYSCHSQTNQQWNVNSNGTISSVQSGRCLDAWSTTNGAQIQLYDCHGQTNQQFRLVSLAR [ESM161]” the melting temperature [1] was 63.1 C, the “purified protein yield per well” value [2] was 137 µg and the PET hydrolysis [3, 4] was 10. For the same sequence, the PET hydrolysis [3, 5] was 13, the PET hydrolysis [3, 6] was 21 and the PET hydrolysis [3, 7] was 6. The PET hydrolysis [3, 8] was under 3, the PET hydrolysis [3, 9] was under 3 and the PET hydrolysis [3, 10] was under 3. The PET hydrolysis [3, 11] was under 3.

With “ADNPFQRGPNPTVESVAATRGTFATAQTSVPAGNGFGGGVVYYPTDTSQGTFGGVAIVPGYSALFADEEAWMGPWLASFGFVVIGIETNSRTDSADARGTQLLAALDYLTQRSPVRDRVDPNRLSVVGHSAGGAGVLSALLRRPSLKAGVGLAPGSPVGNYDLYDDRVPTMFISGQRDTTVTRSYLNGLYGTLPATTPSAWVEITGVDHLFATRANTTEMRVLIPWLKIWVDDDTRYTRFLCPLADSTGISMYRDTCPYVPPGGSSPSPSASPSPSPSPSPSPSPSPSPSPSPSPSPSPSPSASPSASPSPPPPGACAAEYHTVNSWPGGYQASVTVTAGASAVQGWTVRWTLGSGQSITQLWNGTLSTSGSAVTVKNASYNGTIPASGSATFGFLATGTPSAPPLTCTSP [ESM067]” the melting temperature [1] was 57.1 C, the “purified protein yield per well” value [2] was 447 µg and the PET hydrolysis ([3]; substrate: aFilm, 40 °C, pH 4.5) was under 3. It also gave a PET hydrolysis ([3]; substrate: aFilm, 40 °C, pH 5.5) of under 3, a PET hydrolysis ([3]; substrate: aFilm, 40 °C, pH 6.5) of under 3 and a PET hydrolysis ([3]; substrate: aFilm, 40 °C, pH 7.5) of under 3. The PET hydrolysis ([3]; substrate: aFilm, 60 °C, pH 4.5) was under 3, the PET hydrolysis ([3]; substrate: aFilm, 60 °C, pH 5.5) was under 3 and the PET hydrolysis ([3]; substrate: aFilm, 60 °C, pH 6.5) was under 3. It also gave a PET hydrolysis ([3]; substrate: aFilm, 60 °C, pH 7.5) of under 3, a PET hydrolysis [3, 4] of under 3 and a PET hydrolysis [3, 5] of under 3. It also gave a PET hydrolysis [3, 6] of under 3, a PET hydrolysis [3, 7] of under 3 and a PET hydrolysis [3, 8] of under 3. It also gave a PET hydrolysis [3, 9] of under 3, a PET hydrolysis [3, 10] of under 3 and a PET hydrolysis [3, 11] of under 3.
